Consider six proteins from patent US20020086983.

In data set [1] the target is FLAME-1 (in vitro translated, 35S-labeled).
Data set [2] has as its target FLAME-1-D341A (in vitro translated, 35S-labeled).

B1: caspase-6 (Mch2), purified recombinant (protein)
chain: AFYKREMFDPAEKYKMDHRRRGIALIFNHERFFWHLTLPERRGTCADRDNLTRRFSDLGFEVKCFNDLKAEELLLKIHEVSTVSHADADCFVCVFLSHGEGNHIYAYDAKIEIQTLTGLFKGDKCHSLVGKPKIFIIQACRGNQHDVPVIPLDVVDNQTEKLDTNITEVDAASVYTLPAGADFLMCYSVAEGYYSHRETVNGSWYIQDLCEMLGKYGSSLEFTELLTLVNRKVSQRRVDFCKDPSAIGKKQVPCFASMLTKKLHFFPKSN
As to B1, in data set [1], the “cleavage of 35S-labeled FLAME-1 into p39 and p12 (SDS-PAGE, autoradiography)” value was “in vitro translated FLAME-1 can be cleaved by several caspases including CPP32, Mch2, Mch3, Mch4, MchS and ICH-1 to generate two fragments (p39 and pl2)”. Also, in data set [2], the “cleavage of 35S-labeled FLAME-1-D341A (SDS-PAGE, autoradiography)” value (“cleavage of 35S-labeled FLAME-1-D341A” below) is “a D to A mutation in this site prevents these caspases from cleaving FLAME-1”.

B2: caspase-8 (Mch5), purified recombinant (protein)
chain: SESQTLDKVYQMKSKPRGYCLIINNHNFAKAREKVPKLHSIRDRNGTHLDAGALTTTFEELHFEIKPHDDCTVEQIYEILKIYQLMDHSNMDCFICCILSHGDKGIIYGTDGQEAPIYELTSQFTGLKCPSLAGKPKVFFIQACQGDNYQKGIPVETDSEEQPYLEMDLSSPQTRYIPDEADFLLGMATVNNCVSYRNPAEGTWYIQSLCQSLRERCPRGDDILTILTEVNYEVSNKDDKKNMGKQMPQPTFTLRKKLVFPSD
As to B2, in data set [1], the “cleavage of 35S-labeled FLAME-1 into p39 and p12 (SDS-PAGE, autoradiography)” value was “in vitro translated FLAME-1 can be cleaved by several caspases including CPP32, Mch2, Mch3, Mch4, MchS and ICH-1 to generate two fragments (p39 and pl2)”. Further, in data set [2], the “cleavage of 35S-labeled FLAME-1-D341A” value is recorded as “a D to A mutation in this site prevents these caspases from cleaving FLAME-1”.

B3: caspase-2 (ICH-1), purified recombinant (protein)
chain: GPVCLQVKPCTPEFYQTHFQLAYRLQSRPRGLALVLSNVHFTGEKELEFRSGGDVDHSTLVTLFKLLGYDVHVLCDQTAQEMQEKLQNFAQLPAHRVTDSCIVALLSHGVEGAIYGVDGKLLQLQEVFQLFDNANCPSLQNKPKMFFIQACRGDETDRGVDQQDGKNHAGSPGCEESDAGKEKLPKMRLPTRSDMICGYACLKGTAAMRNTKRGSWYIEALAQVFSERACDMHVADMLVKVNALIKDREGYAPGTEFHRCKEMSEYCSTLCRHLYLFPGHPPT
As for B3, the “cleavage of 35S-labeled FLAME-1 into p39 and p12 (SDS-PAGE, autoradiography)” value in data set [1] is “in vitro translated FLAME-1 can be cleaved by several caspases including CPP32, Mch2, Mch3, Mch4, MchS and ICH-1 to generate two fragments (p39 and pl2)”. For the same protein, the “cleavage of 35S-labeled FLAME-1-D341A” value in data set [2] is listed as “a D to A mutation in this site prevents these caspases from cleaving FLAME-1”.

B4: caspase-3 (CPP32), purified recombinant (protein)
chain: SGISLDNSYKMDYPEMGLCIIINNKNFHKSTGMTSRSGTDVDAANLRETFRNLKYEVRNKNDLTREEIVELMRDVSKEDHSKRSSFVCVLLSHGEEGIIFGTNGPVDLKKITNFFRGDRCRSLTGKPKLFIIQACRGTELDCGIETDSGVDDDMACHKIPVEADFLYAYSTAPGYYSWRNSKDGSWFIQSLCAMLKQYADKLEFMHILTRVNRKVATEFESFSFDATFHAKKQIPCIVSMLTKELYFYH
Consider B4, for which the “cleavage of 35S-labeled FLAME-1 into p39 and p12 (SDS-PAGE, autoradiography)” value in data set [1] is “in vitro translated FLAME-1 can be cleaved by several caspases including CPP32, Mch2, Mch3, Mch4, MchS and ICH-1 to generate two fragments (p39 and pl2)”.

B5: caspase-7 (Mch3), purified recombinant (protein)
chain: AKPDRSSFVPSLFSKKKKNVTMRSIKTTRDRVPTYQYNMNFEKLGKCIIINNKNFDKVTGMGVRNGTDKDAEALFKCFRSLGFDVIVYNDCSCAKMQDLLKKASEEDHTNAACFACILLSHGEENVIYGKDGVTPIKDLTAHFRGDRCKTLLEKPKLFFIQACRGTELDDGIQADSGPINDTDANPRYKIPVEADFLFAYSTVPGYYSWRSPGRGSWFVQALCSILEEHGKDLEIMQILTRVNDRVARHFESQSDDPHFHEKKQIPCVVSMLTKELYFSQ
Consider B5, for which the “cleavage of 35S-labeled FLAME-1 into p39 and p12 (SDS-PAGE, autoradiography)” value in data set [1] was “in vitro translated FLAME-1 can be cleaved by several caspases including CPP32, Mch2, Mch3, Mch4, MchS and ICH-1 to generate two fragments (p39 and pl2)”.

B6: caspase-10 (Mch4), purified recombinant (protein)
chain: VKTFLEALPRAAVYRMNRNHRGLCVIVNNHSFTSLKDRQGTHKDAEILSHVFQWLGFTVHIHNNVTKVEMEMVLQKQKCNPAHADGDCFVFCILTHGRFGAVYSSDEALIPIREIMSHFTALQCPRLAEKPKLFFIQACQGEEIQPSVSIEADALNPEQAPTSLQDSIPAEADFLLGLATVPGYVSFRHVEEGSWYIQSLCNHLKKLVPRHEDILSILTAVNDDVSRRVDKQGTKKQMPQPAFTLRKKLVFPVPLDALSL
B6: in data set [1], the “cleavage of 35S-labeled FLAME-1 into p39 and p12 (SDS-PAGE, autoradiography)” value is “in vitro translated FLAME-1 can be cleaved by several caspases including CPP32, Mch2, Mch3, Mch4, MchS and ICH-1 to generate two fragments (p39 and pl2)”. Besides, the “cleavage of 35S-labeled FLAME-1-D341A” value in data set [2] is recorded as “a D to A mutation in this site prevents these caspases from cleaving FLAME-1”.
